# IntAct's records for PubMed 38288086
# B1: OTU domain-containing protein 3 (Homo sapiens), Q5T2D3 (parent)
# chain: MSRKQAAKSRPGSGSRKAEAERKRDERAARRALAKERRNRPESGGGGGCEEEFVSFANQLQALGLKLREVPGDGNCLFRALGDQLEGHSRNHLKHRQETVDYMIKQREDFEPFVEDDIPFEKHVASLAKPGTFAGNDAIVAFARNHQLNVVIHQLNAPLWQIRGTEKSSVRELHIAYRYGEHYDSVRRINDNSEAPAHLQTDFQMLHQDESNKREKIKTKGMDSEDDLRDEVEDAVQKVCNATGCSDFNLIVQNLEAENYNIESAIIAVLRMNQGKRNNAEENLEPSGRVLKQCGPLWEEGGSGARIFGNQGLNEGRTENNKAQASPSEENKANKNQLAKVTNKQRREQQWMEKKKRQEERHRHKALESRGSHRDNNRSEAEANTQVTLVKTFAALNI
# partner: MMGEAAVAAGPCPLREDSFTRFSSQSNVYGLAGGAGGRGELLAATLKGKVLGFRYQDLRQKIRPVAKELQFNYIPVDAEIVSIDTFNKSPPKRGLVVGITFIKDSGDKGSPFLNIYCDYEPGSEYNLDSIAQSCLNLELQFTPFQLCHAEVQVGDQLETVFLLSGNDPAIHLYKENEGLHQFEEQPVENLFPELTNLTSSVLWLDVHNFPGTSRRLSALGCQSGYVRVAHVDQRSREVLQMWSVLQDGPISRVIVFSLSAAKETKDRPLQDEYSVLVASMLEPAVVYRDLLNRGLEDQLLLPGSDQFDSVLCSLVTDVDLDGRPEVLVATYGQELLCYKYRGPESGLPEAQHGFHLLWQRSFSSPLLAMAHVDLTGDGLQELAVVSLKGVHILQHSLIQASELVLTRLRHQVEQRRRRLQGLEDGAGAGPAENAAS
# Variants of: B1
# Conditions: with kptn_human KPTN
row,effect of a mutation on the interaction,Variant
1,with no effect,C76A
